Measurements published in publication doi:10.1101/2021.07.14.452313.

Molecular target: biotinylated hACE2-fc (residues 18-740) (human) (UniProt Q9BYF1)
Experiment: SPR

UniProt Q9BYF1, sequence (Q9BYF1 18-740): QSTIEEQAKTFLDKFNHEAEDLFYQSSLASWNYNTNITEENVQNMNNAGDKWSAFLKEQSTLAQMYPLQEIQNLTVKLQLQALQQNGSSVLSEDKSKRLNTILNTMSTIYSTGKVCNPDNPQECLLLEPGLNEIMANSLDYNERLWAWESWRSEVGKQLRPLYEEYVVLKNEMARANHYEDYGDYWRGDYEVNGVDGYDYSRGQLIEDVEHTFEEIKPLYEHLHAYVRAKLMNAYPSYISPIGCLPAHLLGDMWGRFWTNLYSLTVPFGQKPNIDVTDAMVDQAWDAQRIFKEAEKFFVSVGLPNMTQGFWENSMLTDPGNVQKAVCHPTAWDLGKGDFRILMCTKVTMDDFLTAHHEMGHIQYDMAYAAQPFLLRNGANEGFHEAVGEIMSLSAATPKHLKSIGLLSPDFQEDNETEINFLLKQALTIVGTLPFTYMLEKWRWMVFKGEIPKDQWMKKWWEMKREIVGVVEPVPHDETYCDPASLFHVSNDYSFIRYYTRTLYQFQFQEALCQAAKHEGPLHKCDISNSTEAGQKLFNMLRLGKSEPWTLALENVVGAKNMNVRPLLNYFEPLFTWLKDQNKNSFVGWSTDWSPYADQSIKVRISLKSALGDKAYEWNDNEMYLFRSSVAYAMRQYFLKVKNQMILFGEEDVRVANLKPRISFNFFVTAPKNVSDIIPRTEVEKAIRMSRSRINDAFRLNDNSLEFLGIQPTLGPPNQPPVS

| Substance | KD1 (first step, two state fit) [nM] | Kd [nM] | ka1 (first step, two state fit) [M⁻¹ s⁻¹] | ka2 (second step, two state fit) [M⁻¹ s⁻¹] | kd1 (first step, two state fit) [s⁻¹] | kd2 (second step, two state fit) [s⁻¹] |
| --- | --- | --- | --- | --- | --- | --- |
| SARS-CoV-2 wt trimeric spike protein (domain or fragment) | 1.8 | 0.041 | 782000 | 0.0105 | 0.00141 | 0.000244 |
| SARS-CoV-2 B.1.1.7 trimeric spike protein (domain or fragment) | 193 | 0.04 | 1.31e+06 | 0.053 | 0.025 | 0.00011 |
